Measured values from patent publication US20030119102A1.

Target: T1, rat Kv4.2 α-subunit (rat) (UniProt Q63881)
T1 sequence (looked up): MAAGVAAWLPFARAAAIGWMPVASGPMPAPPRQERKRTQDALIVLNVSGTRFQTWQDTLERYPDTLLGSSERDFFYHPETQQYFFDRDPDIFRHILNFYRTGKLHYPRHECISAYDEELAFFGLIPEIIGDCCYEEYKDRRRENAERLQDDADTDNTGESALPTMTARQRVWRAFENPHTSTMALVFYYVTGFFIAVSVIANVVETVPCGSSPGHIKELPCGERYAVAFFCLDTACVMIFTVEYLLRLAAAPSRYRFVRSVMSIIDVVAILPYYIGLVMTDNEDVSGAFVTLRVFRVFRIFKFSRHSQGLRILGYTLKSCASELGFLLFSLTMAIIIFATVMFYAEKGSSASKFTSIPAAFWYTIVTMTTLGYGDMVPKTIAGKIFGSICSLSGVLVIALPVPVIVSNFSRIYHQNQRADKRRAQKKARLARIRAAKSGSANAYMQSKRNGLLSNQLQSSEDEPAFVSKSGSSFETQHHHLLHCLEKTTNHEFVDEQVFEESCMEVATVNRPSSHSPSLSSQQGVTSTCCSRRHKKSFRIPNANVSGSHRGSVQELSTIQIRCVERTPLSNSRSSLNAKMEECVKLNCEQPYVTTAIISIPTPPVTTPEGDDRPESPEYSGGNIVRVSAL
Assay: cell-based or functional assay

For KChIP2ΔN2-67, the Inactivation time constant (ms, at 50 mV), CHO cells (rKv4.2 + vector: 28.2) was 110 ms, the Peak Current (nA/cell at 50 mV), CHO cells, patch clamp (rKv4.2 + vector: 0.60) was 5.8 nA/cell and the Peak Current Density (pA/pF at 50 mV), CHO cells (rKv4.2 + vector: 25.5) was 203 pA/pF. It also gave a Recovery from Inactivation Time constant, CHO cells (rKv4.2 + vector: 272.2) of 36.1 ms.
